Common to all, as to assay: B cells sorted with PTM-peptide tetramers; PTM epitope to which the cloned antibody binds, Table 7
Experiment [1] addresses T1, TFRC-1 PTM peptide DFPAA{Cit}RLYW (human).
T1 construct: Synthetic citrullinated fragment of TFRC
T1 peptide: DFPAA[Cit]RLYW
An excerpt:
(§1) Once the immunogenic PTM peptides targeted by autoantibodies were identified, PTM-specific autoantibodies were isolated directly from SCLC patients and sequenced (FIG. 13). To accomplish this, PTM-binding B cells were enriched from SCLC patient peripheral blood mononuclear cells using PTM-peptide tetramers. PTM-peptide tetramers were created by combining PE- or APC-labeled magnetic tetramers containing streptavidin cores with biotinylated PTM peptides identified to bind more AAb from SCLC patient plasma compared to wildtype peptides. Five different PTM peptides were included in each PTM-tetramer; 5 citrullinated TFRC peptides were conjugated to PE-tetramers and 5 isoaspartylated peptides (3 CA9, 1 PLD3 and 1 SPINK1) were conjugated to APC-tetramers. These PTM-tetramers were then incubated with pooled peripheral blood mononuclear cells (PBMCs) from 3 different SCLC patients and tetramer bound cells were isolated with magnetic microbeads. This PTM-tetramer ‘enriched’ fraction was labeled with fluorescent antibodies and fluorescence activated cell sorted (FACS) into single cells. PTM-tetramer+ B cells were sorted, heavy and light chain antibody sequences from each B cell were amplified by RT-PCR, and heavy and light chain pairs were successfully sequenced. These sequences were cloned into human IgG expression vectors for antibody production and are shown in Table 7 with the location of the CRs underlined. The sequences of the CDRs were determined using the ImMunoGeneTics (IMGT) information system domain gap align.

The target in experiment [2] is T2, TFRC-2 PTM peptide DFPAAR{Cit}LYW (human).
T2 construct: Synthetic citrullinated fragment of TFRC
T2 peptide: DFPAAR[Cit]LYW
Excerpt: as §1

The target of experiment [3] is T3, TFRC-4 PTM peptide LNDRVM{Cit}VEYC (human, also: biotinylated, site not given here).
T3 construct: Synthetic citrullinated fragment of TFRC; biotinylated on streptavidin tetramers for B cell sorting
T3 peptide: LNDRVM[Cit]VEYC
Excerpt: as §1

In experiment [4] the target is T4, TFRC-5 PTM peptide LND{Cit}VMRVC (human, also: biotinylated, site not given here).
T4 construct: Synthetic citrullinated fragment of TFRC; biotinylated on tetramers for B cell sorting
T4 peptide: LND[Cit]VMRVC
Excerpt: as §1

Experiment [5] concerns the target T5, CA9-3 PTM peptide GV{isoAsp}SSPR (human).
T5 construct: Synthetic isoaspartylated fragment of CA9
T5 peptide: GV[βAsp]SSPR
Excerpt: as §1

The target in experiment [6] is T6, SPINK1-1 PTM peptide YNEL{iso-Asp}GCTKI (human).
T6 construct: Synthetic isoaspartylated fragment of SPINK1
T6 peptide: YNEL[βAsp]GCTKI
Excerpt: as §1

Data on five molecules can be found in patent US20260133192A1 (FRED HUTCHINSON CANCER CENTER, published 2026).

*1 amine or outer side, *2 acyl side, *3 side chain or, on linkers, in order; H or OH if unused. Where no end group is shown, it is not given here. [ ]: non-standard residue; d: D form. βAsp = O=C(O)[C@H](CC(=O)[*:2])N[*:1]; Cit = NC(=O)NCCC[C@H](N)C(=O)O

B1: 2H5 (antibody, V domains shown)
VH: EVQLLESGGGLAQPGGSLRLSCGASGFTFSSHALSWVRLAPGKGLEWVSAISGSGDRTYYADSVKGRFTISRDNSKNMLYLQMNSLRGEDTAVYYCAKEATESYATSWGQGTLVTVSS
VL: DIQMTQSPSTLSASVGDRVTITCRASQSISSWLAWYQQKPGKAPNLLISKAFSVESGVPSTFSGSGSGTEFTLTISSLQPRDSASYYCQQYDSGWTFGQGTKVEIK
Turning to B1, the binding result in experiment [1] and in experiment [2] was “binds” throughout.

B2: 2D2 antibody (antibody, V domains shown)
VH: QVQLVESGGGVVQPGRSLRLSCAASGFTFNSFALMWVRQAPGKGLEWVAVISNDGSNTYYADSVKGRFTISRDNSKNTLYLQMNSLRAEDTAVYYCARGSQYYGSGRYSRKQFDYWGQGTMVTVSS
VL: DIQMTQSPLSLPVTPGEPASISCRSSQSLLHADDGNTYLDWYLQKPGQSPQLLIYTLSSRASGVPDRFSGSGSGTNFTLRISRVEAEDVGVYYCMQRIESPLTFGGGTKVEIK
notes: From B cells of SCLC patient PBMCs; Labeled with CF770 for the in vivo imaging; also called 770-labeled 2D2 antibody
Take B2: the binding result in experiment [3] is reported as “binds”.

B3: 2H8 (antibody, V domains shown)
VH: QVQLVESGGGVVQPGRSLRLSCAASGFTFSTYGMHWVRQAPGKGLQWVAQISNDGSSKYYGDSVKGRFTISRDNSKNTLYLQMNSLRVEDTGVYYCASSGSSGTWGQGTQVTVSS
VL: EIVLTQSPATLFLFPGERVTFSCRASQSVNNYLAWYQQKPGQAPRLLIYDVSNRATGIPARFSGSGSGTDFTLTISSLDPEDFAVYFCQQRSNWPLTFGGGTKVEIK
B3: in experiment [4], the binding result is given as “binds”.

B4: 1B3 (antibody, V domains shown)
VH: QVQLVESGGGLVQPGGSLRLSCAASGFTFSSYWMSWVRQAPGKGLEWVANIKQDGSEEYYVDSVKGRFTISRDNAKSLLYLQMNSLRPEDTAVYYCAGDSLPSSGWEGYFQHWGQGTLVTVSS
VL: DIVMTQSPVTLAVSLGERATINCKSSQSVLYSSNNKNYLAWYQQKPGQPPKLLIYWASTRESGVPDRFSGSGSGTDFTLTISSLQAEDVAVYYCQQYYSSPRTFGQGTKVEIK
For B4, in experiment [5], the binding result was “binds”.

B5: 1A6 (antibody, V domains shown)
VH: QAGLLESGGGVVQPGRSLRLSCAASGFTFSSYGMHWVRQAPGKGLEWVAVIWYDGSNKYYADSVKGRFTISRDNSKNTLYLQMNSLRAEDTAVYYCARGGGITGTVSRKQGMDVWGQGTLVTVSS
VL: AIQLTQSPSSLSASVGDRVTITCRASQGISSYLAWYQQKPGKAPKLLMYGASTLQSGVPSRFSGSGSGTDFTLTISSLQPEDFATYYCQQVNSYPLTFGGGTKVEIK
Take B5: the binding result in experiment [6] was “binds”.
